Reference: patent publication US6818617

Columns and labels:
[1] = target: integrin α4β1 on CHO cells transfected with human α4 (human) (UniProt P13612); experiment: inhibition of cell adhesion: A2 (CHOα4+) cells to immobilized VCAM-1
[2] = target: integrin α4β1 on CHO cells transfected with human α4 (human) (UniProt P13612); experiment: inhibition of cell adhesion: α4B2 (CHO α4+/α5-) cells to immobilized VCAM-1
[3] = target: integrin α4β1 on Jurkat cells, P13612
[4] = target: integrin α4β1 on Jurkat cells, P13612; experiment: inhibition of cell adhesion: Jurkat cells to immobilized VCAM-1

B1: EC-3 protein, heterodimeric disintegrin from Echis carinatus suchoreki venom (protein)
chain 1: NSVHPCCDPVKCEPREGEHCISGPCCRNCYFLRAGTVCKRAVGDDVDDYCSGITPDCPRNRYKGKED
chain 2: NSVHPCCDPVKCEPREGEHCISGPCCRNCKFLNAGTICKRAMLDGLNDYCTGISTDCPRNRYKGKED
IC50 [1]: 0.03 µM
IC50 [2]: 0.03 µM

CKRAMLDGLNDYC (modifications not checked) [cyclic peptide …]
fold more active than MLDG [3]: 5 fold
IC50 [4]: 1000 µM

ECESGPCCRNCKFLKEGTICKRARGDDMDDYCNGKTCDCPRNPHKGPAT [Echistatin]
IC50 [1]: > 10 µM
IC50 [2]: > 10 µM
